In patent publication US20190211111A1:

Biological target: GCN4 peptide-fused αCD19 Fab (Rodgers et al.)
Experiment: ELISA, coated GCN4 peptide-fused αCD19 Fab, detection with anti-human lambda-HRP

Substance: αGCN4-Fab (LC-G202X, HC-K129X, X=pAcF)
- EC50: 1 nM

Substance: αGCN4-Fab (LC-S155X, HC-K129X, X=pAcF)
- EC50: 1 nM

Substance: αGCN4-Fab (LC-S193X, HC-K129X, X=pAcF)
- EC50: 1 nM
